From patent publication US10208288B2, “Differentiation of human embryonic stem cells into pancreatic endocrine cells” (Janssen Biotech, Inc., priority 2012, dated 2019)

Test system: cells of the human embryonic stem cell line H1 differentiated to stage 5
Assay: Immunostaining for insulin protein expression at the end of Stage 5
Assay type: cell-based
Conditions: 50 or 100 ng/ml for three days at stage 5, immunostaining vs control; FIG. 2, FIG. 3
Method: Cells of the human embryonic stem cell line H1 (hESC H1, passage 40) were seeded as single cells at 1×10^5 cells/cm^2 on MATRIGEL™ (1:30 dilution; BD Biosciences, NJ)-coated dishes in mTeSR®1 media supplemented with 10 μM of Y27632. Forty-eight hours post seeding, cultures were washed in incomplete PBS (phosphate buffered saline without Mg or Ca). Cultures were differentiated into pancreatic endoderm/endocrine lineages as follows: • a) Stage 1 (Definitive Endoderm (DE)—3 days): Cells were cultured for one day in stage 1 media (see Example 1, above). Cells were then cultured for an additional day in MCDB-131 medium supplemented with 0.1% fatty acid-free BSA, 0.0012 g/ml sodium bicarbonate, 1× GlutaMax™, 4.5 mM D-Glucose, 100 ng/ml GDF8, and 0.1 μM MCX compound. […]

B1: Ephrin-A3: Ephrin ligand protein from R & D systems (protein, UniProt P52797 23-214, looked up)
Ephrin-A3: QGPGGALGNRHAVYWNSSNQHLRREGYTVQVNVNDYLDIYCPHYNSSGVGPGAGPGPGGGAEQYVLYMVSRNGYRTCNASQGFKRWECNRPHAPHSPIKFSEKFQRYSAFSLGYEFHAGHEYYYISTPTHNLHWKCLRMKVFVCCASTSHSGEKPVPTLPQFTMGPNVKINVLEDFEGENPQVPKLEKSISG
In the case of B1, the “protein expression of insulin” value is reported as “significantly enhanced”.
